# Test results published in FireProtDB (doi:10.1021/bi00010a002).
# Details: Saccharomyces cerevisiae (strain ATCC 204508 / S288c), pH 2.1, Thermal, CD, Na2SO4-H2SO4 0.33 M
# [1] = reversible: yes (>80%), structure 1YCC
# [2] = reversible: yes (>70%), structure 1YCC
# Cytochrome c isoform 1 L100I, P00044, sequence (P00044 whole entry L100I, canonical isoform): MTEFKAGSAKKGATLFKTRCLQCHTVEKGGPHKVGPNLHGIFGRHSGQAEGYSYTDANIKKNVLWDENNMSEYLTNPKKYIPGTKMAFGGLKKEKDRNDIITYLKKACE
# Cytochrome c isoform 1 Y103F, P00044, sequence (P00044 whole entry Y103F, canonical isoform): as the sequence (P00044 whole entry L100I, canonical isoform) above, with I100L, Y103F counted along it
# Cytochrome c isoform 1 A13Y, P00044, sequence (P00044 whole entry A13Y, canonical isoform): as the sequence (P00044 whole entry L100I, canonical isoform) above, with A13Y, I100L counted along it
# Cytochrome c isoform 1 F16W, P00044, sequence (P00044 whole entry F16W, canonical isoform): as the sequence (P00044 whole entry L100I, canonical isoform) above, with F16W, I100L counted along it
# Cytochrome c isoform 1 A13L, P00044, sequence (P00044 whole entry A13L, canonical isoform): as the sequence (P00044 whole entry L100I, canonical isoform) above, with A13L, I100L counted along it
# Cytochrome c isoform 1 F16Y, P00044, sequence (P00044 whole entry F16Y, canonical isoform): as the sequence (P00044 whole entry L100I, canonical isoform) above, with F16Y, I100L counted along it
# Cytochrome c isoform 1 wild type, P00044, sequence (P00044 whole entry, canonical isoform): as the sequence (P00044 whole entry L100I, canonical isoform) above, with I100L counted along it
Substance,Tm [1] [°C],"change of melting temperature, mutant - wild type (higher = more stable) [1] [°C]",unfolding enthalpy (van 't Hoff) [1] [kcal/mol],Tm (reversible: yes (>90%)) [°C],unfolding enthalpy (van 't Hoff) (reversible: yes (>90%)) [kcal/mol],Tm [2] [°C],"change of melting temperature, mutant - wild type (higher = more stable) [2] [°C]",unfolding enthalpy (van 't Hoff) [2] [kcal/mol]
"Cytochrome c isoform 1 Y103F, P00044",33.3,-2.1,33,–,–,–,–,–
"Cytochrome c isoform 1 wild type, P00044",–,–,–,35.4,38.1,–,–,–
"Cytochrome c isoform 1 F16W, P00044",23.1,-12.3,28.9,–,–,–,–,–
"Cytochrome c isoform 1 L100I, P00044",33.7,-1.7,35.8,–,–,–,–,–
"Cytochrome c isoform 1 A13Y, P00044",36,0.6,41.5,–,–,–,–,–
"Cytochrome c isoform 1 A13L, P00044",33.7,-1.7,37.9,–,–,–,–,–
"Cytochrome c isoform 1 F16Y, P00044",–,–,–,–,–,28.4,-7,40.6
